Test results published in article PMC10397247.
One block for each binder: values may come before it.

Legend:
Core_INII-es_KKEK = biological target: T1, Core_INII-es_KKEK; experiment: two-hybrid library CCmax; details: mean of both orientations;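 further: natural log of median RNA to DNA barcode read ratio; higher means stronger binding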
T1 chain: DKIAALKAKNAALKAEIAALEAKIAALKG

P5-AA-12HAA-A = biological target: T2, P5-AA-12HAA-A; experiment: two-hybrid library CCmax; details: mean of both orientations;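 further: natural log of median RNA to DNA barcode read ratio; higher means stronger binding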
T2 chain: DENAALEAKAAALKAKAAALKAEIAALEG

4H3697-AA = biological target: T3, 4H3697-AA; experiment: two-hybrid library CCmax; details: mean of both orientations;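 further: natural log of median RNA to DNA barcode read ratio; higher means stronger binding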
T3 chain: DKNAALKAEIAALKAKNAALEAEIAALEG

4H_BCR = biological target: T4, 4H_BCR; experiment: two-hybrid library CCmax; details: mean of both orientations;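 further: natural log of median RNA to DNA barcode read ratio; higher means stronger binding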
T4 chain: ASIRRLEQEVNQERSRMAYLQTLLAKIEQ

4H_APH = biological target: T5, 4H_APH; experiment: two-hybrid library CCmax; details: mean of both orientations
T5 chain: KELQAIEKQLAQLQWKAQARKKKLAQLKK

O11-AA = biological target: T6, O11-AA; experiment: two-hybrid library CCmax; details: mean of both orientations
T6 chain: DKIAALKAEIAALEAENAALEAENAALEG

4H3865-AA = biological target: T7, 4H3865-AA; experiment: two-hybrid library CCmax; details: mean of both orientations
T7 chain: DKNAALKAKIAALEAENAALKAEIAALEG

GCN2_T = experiment: two-hybrid library CCmax; details: mean of both orientations
4H891-AA = biological target: T8, 4H891-AA; experiment: two-hybrid library CCmax
T8 chain: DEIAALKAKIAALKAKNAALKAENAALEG

P5-AA-12HAA-R = biological target: T9, P5-AA-12HAA-R; experiment: two-hybrid library CCmax; details: mean of both orientations
T9 chain: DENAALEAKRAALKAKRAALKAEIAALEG

4H629-AA = biological target: T10, 4H629-AA; experiment: two-hybrid library CCmax; details: mean of both orientations
T10 chain: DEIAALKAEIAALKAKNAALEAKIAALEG

P5-AA-12HAA-T = biological target: T11, P5-AA-12HAA-T; experiment: two-hybrid library CCmax; details: mean of both orientations
T11 chain: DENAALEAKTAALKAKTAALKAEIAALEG

P5-AA-12HAA-D = biological target: T12, P5-AA-12HAA-D; experiment: two-hybrid library CCmax; details: mean of both orientations
T12 chain: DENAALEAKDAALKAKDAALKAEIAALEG

4H909-AA = biological target: T13, 4H909-AA; experiment: two-hybrid library CCmax; details: mean of both orientations
T13 chain: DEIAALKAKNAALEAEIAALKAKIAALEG

P5-AA-12HAA-Y = biological target: T14, P5-AA-12HAA-Y; experiment: two-hybrid library CCmax; details: mean of both orientations
T14 chain: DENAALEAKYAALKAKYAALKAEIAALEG

4H710-AA = biological target: T15, 4H710-AA; experiment: two-hybrid library CCmax; details: mean of both orientations
T15 chain: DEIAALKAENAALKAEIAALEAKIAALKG

4H3590-AA = biological target: T16, 4H3590-AA; experiment: two-hybrid library CCmax
T16 chain: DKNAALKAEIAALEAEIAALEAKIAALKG

P5-AA-12HAA-L = biological target: T17, P5-AA-12HAA-L; experiment: two-hybrid library CCmax; details: mean of both orientations
T17 chain: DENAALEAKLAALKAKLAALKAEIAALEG

4H3625-AA = biological target: T18, 4H3625-AA; experiment: two-hybrid library CCmax; details: mean of both orientations
T18 chain: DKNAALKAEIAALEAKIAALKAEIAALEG

P5-AA-1HAA-N = biological target: T19, P5-AA-1HAA-N; experiment: two-hybrid library CCmax; details: mean of both orientations
T19 chain: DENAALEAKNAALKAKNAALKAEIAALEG

4H745-AA = biological target: T20, 4H745-AA; experiment: two-hybrid library CCmax; details: mean of both orientations
T20 chain: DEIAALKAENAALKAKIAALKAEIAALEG

P5-AA-12HAA-H = biological target: T21, P5-AA-12HAA-H; experiment: two-hybrid library CCmax; details: mean of both orientations
T21 chain: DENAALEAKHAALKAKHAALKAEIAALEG

4H536-AA = biological target: T22, 4H536-AA; experiment: two-hybrid library CCmax; details: mean of both orientations
T22 chain: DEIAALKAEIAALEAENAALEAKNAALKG

4H930-AA = biological target: T23, 4H930-AA; experiment: two-hybrid library CCmax; details: mean of both orientations
T23 chain: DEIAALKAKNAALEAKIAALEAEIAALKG

4H384-AA = biological target: T24, 4H384-AA; experiment: two-hybrid library CCmax; details: mean of both orientations
T24 chain: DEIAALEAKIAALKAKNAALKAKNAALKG

4H797-AA = biological target: T25, 4H797-AA; experiment: two-hybrid library CCmax; details: mean of both orientations
T25 chain: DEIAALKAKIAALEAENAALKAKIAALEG

P5-AA-12HAA-S = biological target: T26, P5-AA-12HAA-S; experiment: two-hybrid library CCmax; details: mean of both orientations
T26 chain: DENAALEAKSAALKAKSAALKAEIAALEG

4H510-AA = biological target: T27, 4H510-AA; experiment: two-hybrid library CCmax; details: mean of both orientations
T27 chain: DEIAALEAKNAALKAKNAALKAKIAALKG

4H3905-AA = biological target: T28, 4H3905-AA; experiment: two-hybrid library CCmax; details: mean of both orientations
T28 chain: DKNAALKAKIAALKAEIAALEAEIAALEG

4H850-AA = biological target: T29, 4H850-AA; experiment: two-hybrid library CCmax; details: mean of both orientations
T29 chain: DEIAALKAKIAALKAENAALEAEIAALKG

4H94-AA = biological target: T30, 4H94-AA; experiment: two-hybrid library CCmax; details: mean of both orientations
T30 chain: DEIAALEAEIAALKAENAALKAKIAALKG

4H451-AA = biological target: T31, 4H451-AA; experiment: two-hybrid library CCmax; details: mean of both orientations
T31 chain: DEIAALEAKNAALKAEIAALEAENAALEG

O14-AA = biological target: T32, O14-AA; experiment: two-hybrid library CCmax; details: mean of both orientations
T32 chain: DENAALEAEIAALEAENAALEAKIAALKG

4H3753-AA = biological target: T33, 4H3753-AA; experiment: two-hybrid library CCmax; details: mean of both orientations
T33 chain: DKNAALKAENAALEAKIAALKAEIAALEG

4H4038-AA = biological target: T34, 4H4038-AA; experiment: two-hybrid library CCmax; details: mean of both orientations
T34 chain: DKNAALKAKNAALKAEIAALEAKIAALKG

4H43-AA = biological target: T35, 4H43-AA; experiment: two-hybrid library CCmax; details: mean of both orientations
T35 chain: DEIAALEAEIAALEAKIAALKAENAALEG

P5-AA-12HAA-E = biological target: T36, P5-AA-12HAA-E; experiment: two-hybrid library CCmax; details: mean of both orientations
T36 chain: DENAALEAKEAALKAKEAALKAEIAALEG

O13-AA = biological target: T37, O13-AA; experiment: two-hybrid library CCmax; details: mean of both orientations
T37 chain: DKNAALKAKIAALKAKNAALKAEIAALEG

P5-AA-12HAA-K = biological target: T38, P5-AA-12HAA-K; experiment: two-hybrid library CCmax; details: mean of both orientations
T38 chain: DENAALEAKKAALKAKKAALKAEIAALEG

4H458-AA = biological target: T39, 4H458-AA; experiment: two-hybrid library CCmax; details: mean of both orientations
T39 chain: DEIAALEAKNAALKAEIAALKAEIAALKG

4H485-AA = biological target: T40, 4H485-AA; experiment: two-hybrid library CCmax; details: mean of both orientations
T40 chain: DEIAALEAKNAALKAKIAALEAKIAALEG

4H_GCN4 = experiment: two-hybrid library CCmax
Chain of 4H_GCN4 (chain, as listed by the source): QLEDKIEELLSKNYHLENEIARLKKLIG

4H570-AA = biological target: T41, 4H570-AA; experiment: two-hybrid library CCmax; details: mean of both orientations
T41 chain: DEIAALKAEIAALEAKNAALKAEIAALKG

P5-AA-12HAA-V = biological target: T42, P5-AA-12HAA-V; experiment: two-hybrid library CCmax; details: mean of both orientations
T42 chain: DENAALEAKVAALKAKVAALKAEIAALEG

Core_NNNN-es_KEEK = biological target: T43, Core_NNNN-es_KEEK; experiment: two-hybrid library CCmax; details: mean of both orientations
T43 chain: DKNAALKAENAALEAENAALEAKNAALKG

4H2696-bN = biological target: T44, 4H2696-bN; experiment: two-hybrid library CCNG1
T44 chain: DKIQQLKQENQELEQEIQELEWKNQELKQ

4H2883-bN = biological target: T45, 4H2883-bN; experiment: two-hybrid library CCNG1
T45 chain: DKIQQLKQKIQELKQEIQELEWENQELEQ

4H2937-bN = biological target: T46, 4H2937-bN; experiment: two-hybrid library CCNG1
T46 chain: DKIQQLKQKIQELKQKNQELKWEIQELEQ

4H491-bN = biological target: T47, 4H491-bN; experiment: two-hybrid library CCNG1
T47 chain: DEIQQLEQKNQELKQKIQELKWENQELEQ

4H48-bN = biological target: T48, 4H48-bN; experiment: two-hybrid library CCNG1
T48 chain: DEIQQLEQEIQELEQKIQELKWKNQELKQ

4H2944-bN = biological target: T49, 4H2944-bN; experiment: two-hybrid library CCNG1
T49 chain: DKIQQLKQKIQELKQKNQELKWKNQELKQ

4H342-bN = biological target: T50, 4H342-bN; experiment: two-hybrid library CCNG1
T50 chain: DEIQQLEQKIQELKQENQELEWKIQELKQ

4H19-bN = biological target: T51, 4H19-bN; experiment: two-hybrid library CCNG1
T51 chain: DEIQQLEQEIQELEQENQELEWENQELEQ

Core_IIII-es_KEEK = biological target: T52, Core_IIII-es_KEEK; experiment: two-hybrid library CCmax; details: mean of both orientations
T52 chain: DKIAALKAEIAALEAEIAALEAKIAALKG

Core_NIII-es_KKKE = biological target: T53, Core_NIII-es_KKKE; experiment: two-hybrid library CCmax; details: mean of both orientations
T53 chain: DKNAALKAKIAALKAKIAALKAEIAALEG

Core_NNNI-es_KKEK = biological target: T54, Core_NNNI-es_KKEK; experiment: two-hybrid library CCmax; details: mean of both orientations
T54 chain: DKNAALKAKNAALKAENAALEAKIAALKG

Core_IIIN-es_KEEK = biological target: T55, Core_IIIN-es_KEEK; experiment: two-hybrid library CCmax; details: mean of both orientations
T55 chain: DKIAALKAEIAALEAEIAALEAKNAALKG

interaction score (Core_INII-es_KKEK): 2.11
B1: Core_INII-es_EEKE (peptide)
chain: DEIAALEAENAALEAKIAALKAEIAALEG

interaction score (P5-AA-12HAA-A): 1.75 | interaction score (4H3697-AA): -0.287 | interaction score (4H_BCR): -0.0889 | interaction score (4H_APH): -0.247 | interaction score (O11-AA): -0.698 | interaction score (4H3865-AA): -1.18 | interaction score (GCN2_T): -0.424 | interaction score (4H891-AA): -0.048 | interaction score (P5-AA-12HAA-R): 1.92 | interaction score (4H629-AA): -0.923 | interaction score (P5-AA-12HAA-T): 1.63 | interaction score (P5-AA-12HAA-D): -1.25 | interaction score (4H909-AA): -1.14 | interaction score (P5-AA-12HAA-Y): 2.53 | interaction score (4H710-AA): -1.14 | interaction score (4H3590-AA): 2.25 | interaction score (P5-AA-12HAA-L): 2.42 | interaction score (4H3625-AA): 2.07 | interaction score (P5-AA-1HAA-N): -0.0553 | interaction score (4H745-AA): 1.02 | interaction score (P5-AA-12HAA-H): 1.78 | interaction score (4H536-AA): -0.687 | interaction score (4H930-AA): -1.4 | interaction score (4H384-AA): 1.26 | interaction score (4H797-AA): -1.01 | interaction score (P5-AA-12HAA-S): 1.88 | interaction score (4H510-AA): -0.0505 | interaction score (4H3905-AA): 2.01 | interaction score (4H850-AA): -0.0746 | interaction score (4H94-AA): -1.15 | interaction score (4H451-AA): -1.08 | interaction score (O14-AA): -1.17 | interaction score (4H3753-AA): 0.435 | interaction score (4H4038-AA): -0.327 | interaction score (4H43-AA): 1.98 | interaction score (P5-AA-12HAA-E): -0.101 | interaction score (O13-AA): 1.33 | interaction score (P5-AA-12HAA-K): 2.23 | interaction score (4H458-AA): 1.13 | interaction score (4H485-AA): 1.8 | interaction score (4H_GCN4): -1.16 | interaction score (4H570-AA): -0.136 | interaction score (P5-AA-12HAA-V): 2.25
B2: 4H3590-AA (peptide)
chain: DKNAALKAEIAALEAEIAALEAKIAALKG

interaction score (Core_NNNN-es_KEEK): -0.488
B3: Core_NNNN-es_EKKE (peptide)
chain: DENAALEAKNAALKAKNAALKAENAALEG

interaction score (4H2696-bN): -0.528 | interaction score (4H2883-bN): -2.16 | interaction score (4H2937-bN): -0.594 | interaction score (4H491-bN): -0.636 | interaction score (4H48-bN): -0.58 | interaction score (4H2944-bN): 2.27 | interaction score (4H342-bN): -1.48 | interaction score (4H19-bN): -0.738
B4: 4H19-bN (peptide)
chain: DEIQQLEQEIQELEQENQELEWENQELEQ

interaction score (Core_IIII-es_KEEK): 2.36
B5: Core_IIII-es_EKKE (peptide)
chain: DEIAALEAKIAALKAKIAALKAEIAALEG

interaction score (Core_NIII-es_KKKE): 2.14
B6: Core_NIII-es_EEEK (peptide)
chain: DENAALEAEIAALEAEIAALEAKIAALKG

interaction score (Core_NNNI-es_KKEK): 2.2
B7: Core_NNNI-es_EEKE (peptide)
chain: DENAALEAENAALEAKNAALKAEIAALEG

interaction score (Core_IIIN-es_KEEK): 1.73
B8: Core_IIIN-es_EKKE (peptide)
chain: DEIAALEAKIAALKAKIAALKAENAALEG
